Experimental data published in US6013515, “Cofactors for HIV-1 protein Tat and methods of use therefor” (The Rockefeller University, dated 2000).

B1: Tat-interacting protein 30 (TIP30), endogenous 30 kDa protein from HeLa extract (other)
chain: AETEALSKLREDFRMQNKSVFILGASGETGRVLLKEILEQGLFSKVTLIGRRKLTFDEEAYKNVNQEVVDFEKLDDYASAFQGHDVGFCCLGTTRGKAGAEGFVRVDRDYVLKSAELAKAGGCKHFNLLSSKGADKSSNFLYLQVKGEVEAKVEELKFDRYSVFRPGVLLCDRQESRPGERLVRKFFGSLPDSWASGHSVPVVTVVRAMLNNVVRPRDKQMELLENKAIHDLGKAHGSLKP
B2: TIP1 expressed in HeLa cells from pcDNA3.1TIP1 (other)
chain: MAETEALSKLREDFRMQNKSVFILGASGETGRVLLKEILEQGLFSKVTLIGRRKLTFDEEAYKNVNQEVVDFEKLDDYASAFQGHDVGFCCLGTTRGKAGAEGFVRVDRDYVLKSAELAKAGGCKHFNLLSSKGADKSSNFLYLQVKGEVEAKVEELKFDRYSVFRPGVLLCDRQESRPGERLVRKFFGSLPDSWASGHSVPVVTVVRAMLNNVVRPRDKQMELLENKAIHDLGKAHGSLKP

Legend:
[1] = molecular target: GST (glutathione S-transferase) control column (Schistosoma japonicum (Blood fluke), UniProt P08515 = GST); assay: affinity chromatography of HeLa whole cell extract, SDS-PAGE, silver stain
HIV-1 Tat = HIV-1 Tat (HIV-1, UniProt P04608); assay: cell-based or functional assay

Binder | binding result [1] | CAT expression from HIV-1 LTR-CAT reporter in cotransfected HeLa cells (HIV-1 Tat)
B1 | no binding | 
B2 |  | 8.9 fold
